# In paper PMC8882607 (Journal of Molecular Biology, 2022):
# Target: NTF2-like domain of human G3BP1 (residues 1-139) (human, UniProt Q13283 1-139)
# Test: ITC
# Sequence of NTF2-like domain of human G3BP1 (residues 1-139) (Q13283 1-139): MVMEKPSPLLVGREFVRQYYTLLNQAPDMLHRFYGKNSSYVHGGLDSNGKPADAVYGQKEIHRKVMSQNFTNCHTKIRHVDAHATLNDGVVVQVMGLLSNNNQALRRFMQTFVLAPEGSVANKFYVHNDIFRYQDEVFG
binder,measurement,value
MSDNGPQNQRNAPRITFGGPSDSTG [SARS-CoV-2 N_(1–25) peptide (residues 1-25 of the N protein)],dH,-73.6 kJ/mol
